Three molecules from paper PMC12216489, “Deep mutational scanning identifies Cas1 and Cas2 variants that enhance type II-A CRISPR-Cas spacer acquisition” (Nature Communications, 2025) can be followed below.

What all share (experiment): SEC; analytical SEC on Superdex 200 Increase 10/300 GL in SEC buffer (20 mM HEPES pH 7.5, 500 mM NaCl, 5% v/v glycerol, 5 mM DTT) at 4 °C; Cas1 variants (15-100 μM, 2 equiv.) mixed with Cas2 variants (1 equiv.), incubated at 4 °C for 1 h before injection; fractions analysed by SDS-PAGE
What all share (details): both partners purified
A general note: SEC sorts molecules by how far they enter the pores of the column.

In assay [1] the target is T1, Streptococcus pyogenes Cas1 (S. pyogenes, UniProt Q99ZW1 1-289).
T1 construct: Cas1 of the Streptococcus pyogenes SF370 type II-A CRISPR-Cas locus; One of the plasmids pRAH246, pRAH248 or pRAH249; which plasmid holds which variant is in Supplementary Data 2; Fractions with cleaved Cas1 were pooled after SUMO protease digestion; also called wild-type Cas1; source: E. coli Rosetta 2(DE3) BL21, purified (Ni-NTA, SUMO protease, HiTrap Heparin, Superdex 200)
T1 sequence (looked up): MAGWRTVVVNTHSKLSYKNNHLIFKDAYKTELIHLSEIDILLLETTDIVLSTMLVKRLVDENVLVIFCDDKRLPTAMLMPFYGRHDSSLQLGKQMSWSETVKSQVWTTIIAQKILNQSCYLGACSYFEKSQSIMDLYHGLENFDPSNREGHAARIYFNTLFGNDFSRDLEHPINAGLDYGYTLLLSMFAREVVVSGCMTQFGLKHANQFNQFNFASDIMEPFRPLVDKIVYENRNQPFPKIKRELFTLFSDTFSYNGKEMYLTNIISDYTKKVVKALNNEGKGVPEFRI

Assay [2] concerns the target T2, Streptococcus pyogenes Cas1 R5K (S. pyogenes, UniProt Q99ZW1 1-289, R5K).
T2 construct: Cas1 of the Streptococcus pyogenes SF370 type II-A CRISPR-Cas locus with R5K; One of the plasmids pRAH246, pRAH248 or pRAH249; which plasmid holds which variant is in Supplementary Data 2; source: E. coli Rosetta 2(DE3) BL21, purified (Ni-NTA, SUMO protease, HiTrap Heparin, Superdex 200)
T2 sequence (looked up): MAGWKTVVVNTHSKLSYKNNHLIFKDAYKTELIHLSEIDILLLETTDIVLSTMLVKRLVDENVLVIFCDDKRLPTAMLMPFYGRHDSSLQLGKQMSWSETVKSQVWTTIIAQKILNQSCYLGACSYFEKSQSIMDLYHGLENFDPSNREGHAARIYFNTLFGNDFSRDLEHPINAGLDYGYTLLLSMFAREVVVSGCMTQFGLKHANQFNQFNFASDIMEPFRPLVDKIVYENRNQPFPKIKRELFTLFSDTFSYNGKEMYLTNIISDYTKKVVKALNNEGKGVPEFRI

For assay [3], the target named is T3, Streptococcus pyogenes Cas1 R5A (S. pyogenes, UniProt Q99ZW1 1-289, R5A).
T3 construct: Cas1 of the Streptococcus pyogenes SF370 type II-A CRISPR-Cas locus with R5A; One of the plasmids pRAH246, pRAH248 or pRAH249; which plasmid holds which variant is in Supplementary Data 2; source: E. coli Rosetta 2(DE3) BL21, purified (Ni-NTA, SUMO protease, HiTrap Heparin, Superdex 200)
T3 sequence (looked up): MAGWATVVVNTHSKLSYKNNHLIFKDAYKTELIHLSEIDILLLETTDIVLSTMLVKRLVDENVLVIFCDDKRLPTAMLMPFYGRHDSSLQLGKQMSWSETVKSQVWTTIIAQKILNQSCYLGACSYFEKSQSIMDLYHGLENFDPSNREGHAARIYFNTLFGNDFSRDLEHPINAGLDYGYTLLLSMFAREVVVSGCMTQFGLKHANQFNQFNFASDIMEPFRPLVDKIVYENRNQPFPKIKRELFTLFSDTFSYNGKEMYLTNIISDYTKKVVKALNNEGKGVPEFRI

B1: Streptococcus pyogenes Cas2 (natural protein, S. pyogenes, UniProt Q99ZW0 1-113, looked up)
chain: MSYRYMRMILMFDMPTDTAEERKAYRKFRKFLLSEGFIMHQFSIYSKLLLNNTANNAMIGRLREHNPNKGNITLLTVTEKQFARMIYLHGERNNCIANSDERLVFLGEAFDES
notes: Cas2 of the Streptococcus pyogenes SF370 type II-A CRISPR-Cas locus; One of the plasmids pRAH247, pRAH272 or pRAH273; which plasmid holds which variant is in Supplementary Data 2; Same protocol as for Cas1; also called wild-type Cas2; source: E. coli Rosetta 2(DE3) BL21, purified (Ni-NTA, SUMO protease, HiTrap Heparin, Superdex 200)
As for B1, the binding result in assay [1], in assay [2] and in assay [3] was “binds” in each case.

B2: Streptococcus pyogenes Cas2 Y5A (natural protein, S. pyogenes, UniProt Q99ZW0 1-113, looked up)
chain: MSYRAMRMILMFDMPTDTAEERKAYRKFRKFLLSEGFIMHQFSIYSKLLLNNTANNAMIGRLREHNPNKGNITLLTVTEKQFARMIYLHGERNNCIANSDERLVFLGEAFDES
notes: Cas2 of the Streptococcus pyogenes SF370 type II-A CRISPR-Cas locus with Y5A; One of the plasmids pRAH247, pRAH272 or pRAH273; which plasmid holds which variant is in Supplementary Data 2; source: E. coli Rosetta 2(DE3) BL21, purified (Ni-NTA, SUMO protease, HiTrap Heparin, Superdex 200)
On to B2, for which the binding result in assay [1] is listed as “binds”.

B3: Streptococcus pyogenes Cas2 Y5F (natural protein, S. pyogenes, UniProt Q99ZW0 1-113, looked up)
chain: MSYRFMRMILMFDMPTDTAEERKAYRKFRKFLLSEGFIMHQFSIYSKLLLNNTANNAMIGRLREHNPNKGNITLLTVTEKQFARMIYLHGERNNCIANSDERLVFLGEAFDES
notes: Cas2 of the Streptococcus pyogenes SF370 type II-A CRISPR-Cas locus with Y5F; One of the plasmids pRAH247, pRAH272 or pRAH273; which plasmid holds which variant is in Supplementary Data 2; source: E. coli Rosetta 2(DE3) BL21, purified (Ni-NTA, SUMO protease, HiTrap Heparin, Superdex 200)
In the case of B3, in assay [1], the binding result was “binds”.
